The results in this text go back to patent publication US20110229461A1 (UCB, published 2011).

Assay [1] addresses T1, human PD-1 (recombinant, titrated in BIAcore) (human, UniProt Q15116 25-170).
T1 construct: extracellular domain; also called recombinant human PD-1 extracellular domain
The assay can be described thus: SPR BIAcore 3000; antibody captured by anti-human Fc, human PD-1 titrated.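 Note: CM5 chip with amine-coupled goat anti-human Fc F(ab′)₂, HBS-EP running buffer at 10 µL/min, blank-surface-subtracted sensorgrams fitted in BIAevaluation 3.2 for kinetic constants.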 A general note: SPR reads the build-up and loss of mass on a sensor chip optically.

The target of assay [2] is T2, human PD-1 on cells (transfected HEK293 cells; human T cells) (human, UniProt Q15116 25-288).
T2 construct: whole, on cells; HEK293 cells transiently transfected with human PD-1 DNA; also called PD-1 expressing HEK293 cells; PD-1 transfected HEK cells
T2 sequence (Q15116 25-288): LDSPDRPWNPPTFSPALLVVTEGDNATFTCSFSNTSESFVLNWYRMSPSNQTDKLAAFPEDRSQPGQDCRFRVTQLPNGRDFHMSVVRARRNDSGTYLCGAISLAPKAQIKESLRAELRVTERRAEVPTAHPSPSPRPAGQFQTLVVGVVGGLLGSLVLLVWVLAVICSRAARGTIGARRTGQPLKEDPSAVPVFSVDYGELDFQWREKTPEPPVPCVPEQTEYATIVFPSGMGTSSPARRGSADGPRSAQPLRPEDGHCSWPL
Put plainly: flow cytometry on activated human T cells; top of curve constrained; top part of curve constrained to ~45 geo mean. On the technique in general: Flow cytometry measures light scatter and fluorescence of single cells or particles in a stream.

For assay [3], the target named is T2, human PD-1 on cells (transfected HEK293 …). Put plainly: flow cytometry on activated human T cells; unconstrained curve; unconstrained curve.
The target is the same in assay [4]. Put plainly: flow cytometry on activated human T cells.

Residue numbers refer to the chain shown, from its start. Names may count otherwise.

T1 sequence (Q15116 25-170): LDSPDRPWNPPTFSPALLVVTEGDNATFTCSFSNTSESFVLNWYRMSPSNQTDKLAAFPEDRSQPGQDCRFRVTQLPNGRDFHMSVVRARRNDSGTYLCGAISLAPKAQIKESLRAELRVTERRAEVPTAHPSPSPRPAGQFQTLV

B1: antibody CA051-00949 (949), parental variable regions, murine IgG1 (antibody, V domains shown)
VH: QVQLQQSGAELVKPGASVKMSCKAFGYTFTTYPIEWMKQNHGKSLEWIGNFHPYNDDTKYNEKFKGKAKLTVEKSSTTVYLELSRLTSDDSAVYYCARENYGSHGGFVYWGQGTLVTVS
VL: ENVLTQSPAIMSASPGEKVTMTCRASSSVISSYLHWYQQKSGASPKLWIYSTSNLASGVPDRFSGSGSGTSYSLTISSVEAEDAATYYCQQYNGYPLTFGAGTKLEIK
notes: also called Clone 19
Take B1: the Kd (as a rule, the equilibrium constant for the complex coming apart) in assay [1] worked out at 5.07 nM.

B2: 949 chimeric (949 variable regions with human IgG4 constant domains) (antibody, V domains shown)
VH: B1 VH
VL: B1 VL
notes: also called original CA949 construct, cLcH
Take B2: the EC50 (as a rule, the midpoint of the concentration-response curve) was 3.61 µg/mL in assay [2] and 1.2 µg/mL in assay [3]. Also, in assay [1], the Kd stood at 5.98 nM.

B3: 949 VK1 gL9 gH8a (antibody, V domains shown)
VH: EVQLVQSGAEVKKPGASVKVSCKAFGYTFTTYPIEWMRQAHGQGLEWIGNFHPYNDDTKYNEKFKGRVTMTRDTSTSTVYMELSSLRSEDTAVYYCARENYGSHGGFVYWGQGTLVTVS
VL: ENVLTQSPFSLSASVGDRVTITCRASSSVISSYLHWYQQKPAKAPKLFIYSTSNLASGVPSRFSGSGSGTDYTLTISSLQPEDFATYYCQQYNGYPLTFGGGTKVEIK
notes: Humanised; human kappa constant (Km3)
On to B3, for which the Kd in assay [1] came to 2.35 nM.

B4: 949 VK1 gL9 gH8b (antibody, V domains shown)
VH: B3 VH with A16S, M70I, R72A, T74K, V79A
VL: B3 VL
notes: as for B3
Consider B4, for which the Kd in assay [1] amounted to 2.34 nM.

B5: 949 VK3 gL1 gH1a (antibody, V domains shown)
VH: B3 VH with R72V, T74K, S77T
VL: ENVLTQSPGTLSLSPGERATLSCRASSSVISSYLHWYQQKPGQAPRLWIYSTSNLASGVPDRFSGSGSGTSYTLTISRLEPEDFATYYCQQYNGYPLTFGGGTKVEIK
notes: as for B3
B5: in assay [1], the Kd was found to be 4.02 nM; the koff (commonly the first-order rate constant of dissociation) stood at 0.000844 s⁻¹; the kon (as a rule, the rate constant with which the complex forms) was determined as 210000 M⁻¹ s⁻¹.

B6: 949 VK1 gL14 gH8b (antibody, V domains shown)
VH: B3 VH with A16S, M70I, R72A, T74K, V79A
VL: B3 VL with L4M, G94S
notes: as for B3
B6: the Kd in assay [1] was 4.38 nM.

B7: 949 VK1 gL12 gH8a (antibody, V domains shown)
VH: B3 VH
VL: B3 VL with L4M
notes: as for B3
For the molecule B7, the Kd in assay [1] stood at 2.46 nM.

B8: 949 VK1 gL1 gH1b (antibody, V domains shown)
VH: B3 VH with A16S, M70I, R72V, T74K, S77T
VL: B3 VL with F48W, S61D, D71S
notes: as for B3
Take B8: in assay [1], the Kd came to 2.92 nM, the koff stood at 0.000556 s⁻¹ and the kon worked out at 191000 M⁻¹ s⁻¹.

B9: 949 VK1 gL15 gH8b (antibody, V domains shown)
VH: B3 VH with A16S, M70I, R72A, T74K, V79A
VL: B3 VL with G94S
notes: Humanised; human kappa constant (Km3); also called Transient #3
In the case of B9, the EC50 in assay [4] turned out to be 6.09 µg/mL.

B10: 949 VK1 gL15 gH8a (antibody, V domains shown)
VH: B3 VH
VL: B3 VL with G94S
notes: Humanised; human kappa constant (Km3); also called Transient #2
As for B10, the EC50 in assay [4] came out at 3.15 µg/mL.

B11: 949 VK1 gL1 gH1a (antibody, V domains shown)
VH: B3 VH with R72V, T74K, S77T
VL: B3 VL with F48W, S61D, D71S
notes: Humanised; human kappa constant (Km3); Heavy V regions were cloned into gamma-4P (S241P), gamma-4P delta Lys and gamma-1 delta Lys vectors
As to B11, in assay [1], the Kd came to 3.71 nM, the koff came out at 0.000782 s⁻¹ and the kon was found to be 211000 M⁻¹ s⁻¹.

B12: 949 VK1 gL14 gH8a (antibody, V domains shown)
VH: B3 VH
VL: B3 VL with L4M, G94S
notes: as for B3
With B12, in assay [1], the Kd stood at 4.75 nM.

B13: 949 VK1 gL15 gH20b (antibody, V domains shown)
VH: B3 VH with A16S, F25S, M37V, H41P, I48M, M70I, R72A, T74K, V79A
VL: B3 VL with G94S
notes: Humanised; also called Transient #5
In turn, B13 returned an EC50 in assay [4] of 4.1 µg/mL.

B14: 949 VK1 gL9 gH20b (antibody, V domains shown)
VH: B3 VH with A16S, F25S, M37V, H41P, I48M, M70I, R72A, T74K, V79A
VL: B3 VL
notes: Humanised; human kappa constant (Km3); also called Transient #1
In the case of B14, the response in assay [4] was half-maximal at 1.14 µg/mL (EC50). The Kd in assay [1] amounted to 2.66 nM.

B15: 949 VK1 gL12 gH20a (antibody, V domains shown)
VH: B3 VH with M37V, H41P, I48M
VL: B3 VL with L4M
notes: as for B3
With B15, the Kd in assay [1] was found to be 3.38 nM.

B16: 949 VK3 gL1 gH1b (antibody, V domains shown)
VH: B3 VH with A16S, M70I, R72V, T74K, S77T
VL: B5 VL
notes: as for B3
Consider B16, for which, in assay [1], the Kd came out at 3.14 nM, the koff is 0.00065 s⁻¹ and the kon is 207000 M⁻¹ s⁻¹.

B17: 949 VK1 gL9 gH20a (antibody, V domains shown)
VH: B3 VH with M37V, H41P, I48M
VL: B3 VL
notes: as for B3
For the molecule B17, in assay [1], the Kd was 3.17 nM.

B18: 949 VK1 gL15 gH20a (antibody, V domains shown)
VH: B3 VH with M37V, H41P, I48M
VL: B3 VL with G94S
notes: Humanised; human kappa constant (Km3); also called Transient #4
Turning to B18, the EC50 in assay [4] is 2.89 µg/mL.

B19: 949 VK1 gL12 gH8b (antibody, V domains shown)
VH: B3 VH with A16S, M70I, R72A, T74K, V79A
VL: B3 VL with L4M
notes: as for B3
For the molecule B19, the Kd in assay [1] is 2.77 nM.

B20: 949 VK3 gL11 gH1a (antibody, V domains shown)
VH: B3 VH with R72V, T74K, S77T
VL: B5 VL with G94S
notes: as for B3
As for B20, in assay [1], the Kd came out at 4.89 nM, the koff amounted to 0.00109 s⁻¹ and the kon is 223000 M⁻¹ s⁻¹.

B21: 949 VK1 gL11 gH1a (antibody, V domains shown)
VH: B3 VH with R72V, T74K, S77T
VL: B3 VL with F48W, S61D, D71S, G94S
notes: as for B3
B21: in assay [1], the Kd is 5.54 nM, the koff turned out to be 0.00115 s⁻¹ and the kon worked out at 207000 M⁻¹ s⁻¹.

B22: 949 VK1 gL12 gH20b (antibody, V domains shown)
VH: B3 VH with A16S, F25S, M37V, H41P, I48M, M70I, R72A, T74K, V79A
VL: B3 VL with L4M
notes: as for B3
Take B22: the Kd in assay [1] was 3.8 nM.
